Reference: the Human Domainome abundance scans (Beltran et al. 2025)
± gives the uncertainty stated by the source.

B1: Transcription factor SOX-11, residues 50 to 117; numbered along this chain, P35716 (parent)
chain: KRPMNAFMVWSKIERRKIMEQSPDMHNAEISKRLGKRWKMLKDSEKIPFIREAERLRLKHMADYPDYK

Variants of: B1
Assay: abundance fitness (aPCA) (normalised: wild type 0, dead -1); higher = more abundant; growth selection in yeast, the domain comes from the species named
Details: Homo sapiens

Abundance fitness: each site, then its substitutions
A53: F -0.64 ± 0.081, H -0.741 ± 0.1, W -0.91 ± 0.2, T -0.649 ± 0.11, N -0.474 ± 0.11, S -0.506 ± 0.056, C -0.728 ± 0.084, K -1.12 ± 0.34, V -0.749 ± 0.085, Y -0.813 ± 0.09, G -0.946 ± 0.087, D -0.961 ± 0.12, P -0.478 ± 0.11, E -0.622 ± 0.18, L -0.747 ± 0.095, I -0.709 ± 0.098, M -0.33 ± 0.19, R -0.77 ± 0.087
P65: V -0.013 ± 0.47, S 0.269 ± 0.36, R -0.495 ± 0.43, Y -0.41 ± 0.37
A62: M -0.181 ± 0.082, Y -0.163 ± 0.043, L -0.123 ± 0.044, H -0.251 ± 0.059, K -0.085 ± 0.08, D 0.092 ± 0.05, I -0.182 ± 0.046, N 0.111 ± 0.043, W -0.43 ± 0.098, S 0.116 ± 0.039, C -0.062 ± 0.047, Q 0.146 ± 0.096, F -0.2 ± 0.042, V -0.139 ± 0.047, G 0.079 ± 0.05, R -0.225 ± 0.053
E54: R -0.74 ± 0.1, M -0.833 ± 0.34, T -0.7 ± 0.12, P -0.925 ± 0.16, A -0.425 ± 0.072, H -0.641 ± 0.097, D -0.323 ± 0.066, N -0.241 ± 0.063, C -0.42 ± 0.089, Q -0.364 ± 0.16, L -0.601 ± 0.083, G -0.714 ± 0.085, F -0.762 ± 0.085, V -0.671 ± 0.074, K -0.826 ± 0.24, W -0.576 ± 0.36, Y -0.335 ± 0.067, I -0.751 ± 0.091
R57: W -0.114 ± 0.1, E 0.283 ± 0.13, K 0.137 ± 0.11, M -0.068 ± 0.13, Q -0.057 ± 0.12, I -0.384 ± 0.065, V -0.373 ± 0.066, C -0.186 ± 0.058, N 0.414 ± 0.045, H -0.126 ± 0.067, D -0.137 ± 0.073, G -0.167 ± 0.059, F -0.432 ± 0.054, P -0.426 ± 0.11, A 0.023 ± 0.063, Y -0.248 ± 0.056, L -0.335 ± 0.065, T -0.023 ± 0.07
E52: C -0.515 ± 0.064, V -0.404 ± 0.057, M -0.396 ± 0.12, W -0.605 ± 0.14, T -0.397 ± 0.079, P -0.982 ± 0.15, F -0.546 ± 0.067, N -0.793 ± 0.12, H -0.564 ± 0.078, Y -0.598 ± 0.082, R -0.735 ± 0.076, S -0.785 ± 0.072, A -0.462 ± 0.084, K -0.577 ± 0.16, Q -1.04 ± 0.34, I -0.278 ± 0.061, D -0.438 ± 0.088
L58: W -0.222 ± 0.16, D 0.188 ± 0.056, G -0.076 ± 0.054, T -0.011 ± 0.071, M -0.149 ± 0.13, Y -0.195 ± 0.055, P -0.473 ± 0.12, S -0.047 ± 0.046, V -0.101 ± 0.052, R -0.118 ± 0.069, N 0.068 ± 0.054, H 0.065 ± 0.06, I -0.087 ± 0.054, C -0.116 ± 0.055, E -0.294 ± 0.16
L56: M 0.079 ± 0.16, K -0.664 ± 0.23, Q -0.26 ± 0.18, I -0.176 ± 0.058, G -0.39 ± 0.066, C -0.533 ± 0.078, V -0.528 ± 0.063, P -1.1 ± 0.22, E -0.212 ± 0.18, S -0.199 ± 0.051, Y -0.386 ± 0.078, N -0.347 ± 0.06, R -0.532 ± 0.084, F -0.377 ± 0.056, D -0.247 ± 0.069, T -0.267 ± 0.076, W -0.888 ± 0.26
I47: T -0.051 ± 0.057, V -0.097 ± 0.041, P -1.04 ± 0.13, S -0.279 ± 0.04, W -0.176 ± 0.083, M 0.101 ± 0.072, N -0.529 ± 0.05
I50: L -0.161 ± 0.063, S -0.509 ± 0.057, A -0.287 ± 0.074, W -0.437 ± 0.14, H -0.005 ± 0.06, Q -0.007 ± 0.18, P -0.617 ± 0.14, F -0.034 ± 0.052, M 0.013 ± 0.14, G -0.555 ± 0.071, D -0.425 ± 0.071, C -0.59 ± 0.072, K -0.228 ± 0.17, E 0.248 ± 0.11, N -0.323 ± 0.069, R -0.01 ± 0.059
R55: H -0.213 ± 0.06, C -0.416 ± 0.057, P -0.868 ± 0.19, V -0.343 ± 0.063, F -0.356 ± 0.071, W -0.277 ± 0.19, M -0.521 ± 0.15, K -0.177 ± 0.15, E -0.017 ± 0.14, N -0.087 ± 0.055, Y -0.43 ± 0.061, G -0.313 ± 0.055, D -0.119 ± 0.058, I -0.246 ± 0.067, S -0.146 ± 0.049
H60: I -0.178 ± 0.066, S -0.017 ± 0.05, W -0.607 ± 0.18, M -0.114 ± 0.19, P -0.142 ± 0.079, T 0.103 ± 0.074
